Laboratory results as given in patent US11028172 (LEPU BIOPHARMA, dated 2021).
Residue numbers refer to the chain shown, from its start.

B1: LP010-02 (Hu02-human IgG1 Fc) (antibody, V domains shown)
VH: EVQLQESGPGLVKPSETLSLTCAVSGYSISSGYDWHWIRQPPGKGLEWIGFIRDSGSTVYNPSLKGRITISHDTSKNQFSLKLSSVTAADTAVYYCARGLFWYFDVWGQGTTVTVSS
VL: DIQMTQSPSSLSASVGDRVTITCRTSENIFSYLAWYQQKPGKVPKLLIYNTKTLAEGVPSRFSGSGSGTDFTLTISSLQPEDVATYYCQHHYGNPLTFGQGTKLEIK
B2: Tiragolumab (RG6058, Roche) (antibody, V domains shown)
VH: EVQLQQSGPGLVKPSQTLSLTCAISGDSVSSNSAAWNWIRQSPSRGLEWLGKTYYRFKWYSDYAVSVKGRITINPDTSKNQFSLQLNSVTPEDTAVFYCTRESTTYDLLAGPFDYWGQGTLVTVSS
VL: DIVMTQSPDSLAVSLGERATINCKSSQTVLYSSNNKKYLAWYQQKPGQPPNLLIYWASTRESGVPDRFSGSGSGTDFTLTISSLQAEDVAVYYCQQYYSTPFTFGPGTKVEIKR
B3: 76D12B10-Hu08 (antibody, V domains shown)
VH: B1 VH with I49M
VL: B1 VL with Y49H
notes: Humanized, VH.V3 + VK.V1
B4: 76D12B10-Hu01 (antibody, V domains shown)
VH: B1 VH with I68V
VL: B1 VL
notes: Humanized, VH.V1 + VK.V0
B5: 76D12B10-Hu02 (antibody, V domains shown)
VH: B1 VH
VL: B1 VL
notes: Humanized, VH.V2 + VK.V0
B6: 76D12B10-Hu03 (antibody, V domains shown)
VH: B1 VH with I49M
VL: B1 VL
notes: Humanized, VH.V3 + VK.V0
B7: 76D12B10-Hu04 (antibody, V domains shown)
VH: B1 VH with V24A, S30T, I49M
VL: B1 VL
notes: Humanized, VH.V4 + VK.V0
B8: 76D12B10-Hu05 (antibody, V domains shown)
VH: B1 VH with V24A, S30T, G45K, I49M, Y95F
VL: B1 VL
notes: Humanized, VH.V5 + VK.V0
B9: 76D12B10-Hu06 (antibody, V domains shown)
VH: B1 VH with I68V
VL: B1 VL with Y49H
notes: Humanized, VH.V1 + VK.V1
B10: 76D12B10-Hu07 (antibody, V domains shown)
VH: B1 VH
VL: B1 VL with Y49H
notes: Humanized, VH.V2 + VK.V1
B11: 76D12B10-Hu09 (antibody, V domains shown)
VH: B1 VH with V24A, S30T, I49M
VL: B1 VL with Y49H
notes: Humanized, VH.V4 + VK.V1
B12: 76D12B10-Hu10 (antibody, V domains shown)
VH: B1 VH with V24A, S30T, G45K, I49M, Y95F
VL: B1 VL with Y49H
notes: Humanized, VH.V5 + VK.V1
B13: 76D12B10-Hu11 (antibody, V domains shown)
VH: B1 VH with I68V
VL: B1 VL with I48V, Y49H
notes: Humanized, VH.V1 + VK.V2
B14: 76D12B10-Hu12 (antibody, V domains shown)
VH: B1 VH
VL: B1 VL with I48V, Y49H
notes: Humanized, VH.V2 + VK.V2
B15: 76D12B10-Hu13 (antibody, V domains shown)
VH: B1 VH with I49M
VL: B1 VL with I48V, Y49H
notes: Humanized, VH.V3 + VK.V2
B16: 76D12B10-Hu14 (antibody, V domains shown)
VH: B1 VH with V24A, S30T, I49M
VL: B1 VL with I48V, Y49H
notes: Humanized, VH.V4 + VK.V2
B17: 76D12B10-Hu15 (antibody, V domains shown)
VH: B1 VH with V24A, S30T, G45K, I49M, Y95F
VL: B1 VL with I48V, Y49H
notes: Humanized, VH.V5 + VK.V2

Molecular target: T1, human TIGIT expressed on cells (human, UniProt Q495A1 22-244)
T1 construct: whole, on cells; also called human TIGIT overexpressed mammalian cells; human TIGIT cells
T1 sequence (looked up): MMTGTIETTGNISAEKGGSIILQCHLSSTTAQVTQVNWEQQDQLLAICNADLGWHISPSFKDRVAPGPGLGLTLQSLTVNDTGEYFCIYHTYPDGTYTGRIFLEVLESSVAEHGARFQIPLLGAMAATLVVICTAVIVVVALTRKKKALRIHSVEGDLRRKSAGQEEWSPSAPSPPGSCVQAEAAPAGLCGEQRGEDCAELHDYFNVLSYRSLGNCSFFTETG
Experiment: flow cytometry on human TIGIT overexpressing cells, Alexa Fluor 647 anti-human IgG; unit from the x axis
Description: (§1) To evaluate the antigen binding property, the humanized antibodies were analyzed for their binding to human TIGIT overexpressed mammalian cells by FACS. Briefly, human TIGIT cells were firstly incubated with 3-fold serious diluted humanized antibodies starting at 5 µg/ml at 4° C. for 40 mins.

Row | Binder | LogEC50
1 | B1 | 1.52 Log[Conc.]/ng/ml
2 | B2 | 1.57 Log[Conc.]/ng/ml

Molecular target: T2, human TIGIT-His protein (human, UniProt Q495A1 22-141)
T2 construct: Recombinant protein; also called human TIGIT-his tag; hTIGIT-His
T2 sequence (looked up): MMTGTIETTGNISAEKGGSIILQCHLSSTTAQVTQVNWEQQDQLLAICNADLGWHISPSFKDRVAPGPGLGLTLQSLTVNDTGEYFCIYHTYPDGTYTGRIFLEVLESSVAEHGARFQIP
Experiment: ELISA, plate coated with human TIGIT-His, anti-human IgG-HRP, OD 450nm; unit taken from the axis Log[Conc.]/ng/ml
Description: (§2) To evaluate the antigen binding activity, the humanized antibodies were subjected to ELISA test. Briefly, microtiter plates were coated with human TIGIT-his protein at 0.5 µg/ml in PBS, 100 µl/well at 4° C. overnight, then blocked with 150 µl/well of 1% BSA. Three-fold dilutions of humanized antibodies starting from 3 µg/ml were added to each well and incubated for 1 hour at 37° C. The plates were washed with PBS/Tween and then incubated with Goat-anti-human IgG antibody conjugated with Horse Radish Peroxidase (HRP) for 30 mins at 37° C. After washing, the plates were developed with TMB substrate and analyzed by spectrophotometer at OD 450 nm.

Row | Binder | EC50
3 | B3 | 0.00954 µg/mL
4 | B4 | 0.00989 µg/mL
5 | B5 | 0.0103 µg/mL
6 | B6 | 0.0106 µg/mL
7 | B7 | 0.00996 µg/mL
8 | B8 | 0.0101 µg/mL
9 | B9 | 0.0104 µg/mL
10 | B10 | 0.0107 µg/mL
11 | B11 | 0.00495 µg/mL
12 | B12 | 0.00401 µg/mL
13 | B13 | 0.00709 µg/mL
14 | B14 | 0.0111 µg/mL
15 | B15 | 0.0121 µg/mL
16 | B16 | 0.0107 µg/mL
17 | B17 | 0.00968 µg/mL

Molecular target: T2, human TIGIT-His protein
Experiment: as above
Remark: another data set of the same source
Description: To evaluate the antigen binding activity, LP010-02 (Hu02-human IgG1 Fc) and control antibody Tiragolumab (RG6058, Roche), which contains the same IgG1 Fc, were subjected to ELISA testing. Briefly, microtiter plates were coated with human TIGIT-his protein at 0.5 µg/ml in PBS, 100 µl/well at 4° C. overnight, then blocked with 150 µl/well of 1% BSA. Three-fold dilutions of humanized antibodies starting from 3 µg/ml were added to each well and incubated for 1 hour at 37° C. The plates were washed with PBS/Tween and then incubated with Goat-anti-human IgG antibody conjugated with Horse Radish Peroxidase (HRP) for 0.5 hour at 37° C. After washing, the plates were developed with the TMB substrate and analyzed by spectrophotometer at OD 450 nm.

Row | Binder | EC50
18 | B1 | 0.00654 µg/mL

Molecular target: T1, human TIGIT expressed on cells
Experiment: cell-based or functional assay

Row | Binder | NFAT luciferase production, EC50
19 | B5 | 1.76 nM
20 | B9 | 1.67 nM

Molecular target: T2, human TIGIT-His protein
Experiment: SPR (Biacore T200) full kinetics, antibody captured on Protein A chip, hTIGIT-His as analyte
Description: The binding of the humanized antibodies to recombinant TIGIT protein (human TIGIT-his tag) was tested by BIACORE™ using a capture method. Hu02 and Hu06 mAbs were captured using Protein A chip. A serial dilution of human TIGIT-his tag protein was injected over captured antibody for 2 mins at a flow rate of 30 µl/min. The antigen was allowed to dissociate for 1800 s. All the experiment were carried out on a Biacore T200.

Row | Binder | Kd | koff | kon
21 | B5 | 0.0462 nM | 9.27e-05 s⁻¹ | 2e+06 M⁻¹ s⁻¹
22 | B9 | 0.0416 nM | 7.18e-05 s⁻¹ | 1.72e+06 M⁻¹ s⁻¹

Molecular target: T2, human TIGIT-His protein
Experiment: ELISA, plate coated with human TIGIT-His, anti-human IgG-HRP, OD 450nm; unit taken from the axis Log[Conc.]/ng/ml
Remark: another data set of the same source
Description: as §2, with “Hu02 and Hu06” for “the humanized antibodies”, “0.5 hour” for “30 mins”

Row | Binder | EC50
23 | B5 | 0.00823 µg/mL
24 | B9 | 0.00934 µg/mL

Molecular target: T1, human TIGIT expressed on cells
Experiment: cell-based or functional assay
Remark: another data set of the same source

Row | Binder | EC50, NFAT luciferase reporter (RLU), TIGIT-CD226-NFAT effector cells with Raji-CD155 target cells | LogEC50, NFAT luciferase reporter (RLU), TIGIT-CD226-NFAT effector cells with Raji-CD155 target cells
25 | B1 | 1.95 nM | 0.29 Log[Conc.]/nM
26 | B2 | 2.95 nM | 0.47 Log[Conc.]/nM

Molecular target: T2, human TIGIT-His protein
Experiment: SPR (Biacore) affinity ranking, human TIGIT-His

Row | Binder | Kd | koff | kon
27 | B3 | 0.0192 nM | 9.73e-05 s⁻¹ | 5.06e+06 M⁻¹ s⁻¹
28 | B4 | 0.0701 nM | 0.000104 s⁻¹ | 1.48e+06 M⁻¹ s⁻¹
29 | B5 | 0.0196 nM | 9.74e-05 s⁻¹ | 4.98e+06 M⁻¹ s⁻¹
30 | B6 | 0.0143 nM | 0.00015 s⁻¹ | 1.05e+07 M⁻¹ s⁻¹
31 | B7 | 0.0191 nM | 9.85e-05 s⁻¹ | 5.15e+06 M⁻¹ s⁻¹
32 | B8 | 0.0165 nM | 9.75e-05 s⁻¹ | 5.92e+06 M⁻¹ s⁻¹
33 | B9 | 0.0136 nM | 0.000101 s⁻¹ | 7.43e+06 M⁻¹ s⁻¹
34 | B10 | 0.0186 nM | 8.93e-05 s⁻¹ | 4.8e+06 M⁻¹ s⁻¹
35 | B11 | 0.0139 nM | 0.000125 s⁻¹ | 9.01e+06 M⁻¹ s⁻¹
36 | B12 | 0.0266 nM | 9.79e-05 s⁻¹ | 3.68e+06 M⁻¹ s⁻¹
37 | B13 | 0.0255 nM | 9.21e-05 s⁻¹ | 3.62e+06 M⁻¹ s⁻¹
38 | B14 | 0.0244 nM | 0.00014 s⁻¹ | 5.75e+06 M⁻¹ s⁻¹
39 | B15 | 0.0281 nM | 0.000128 s⁻¹ | 4.54e+06 M⁻¹ s⁻¹
40 | B16 | 0.0196 nM | 9.97e-05 s⁻¹ | 5.09e+06 M⁻¹ s⁻¹
41 | B17 | 0.0135 nM | 0.000105 s⁻¹ | 7.76e+06 M⁻¹ s⁻¹

Molecular target: T3, biotin-labeled human TIGIT protein (human, UniProt Q495A1 22-141, biotin-labeled (sites not given))
T3 construct: also called recombinant human TIGIT
T3 sequence (looked up): T2 sequence (looked up)
Experiment: ELISA blocking assay: CD155-hFc coated, biotin-labeled human TIGIT, antibody titrated
Description: To evaluate the blocking effects of Hu02 and Hu06 on recombinant human TIGIT to bind to its receptor CD155, an ELISA based receptor blocking assay was used.
Briefly, microtiter plates were coated with human CD155-hFc protein at 5 µg/ml in PBS, 100 µl/well at 4° C. overnight, then blocked with 150 µl/well of 1% BSA. 50 µl biotin-labeled human TIGIT protein and 3-fold dilutions of Hu02 and Hu06 antibodies starting from 10 µg/ml at 50 µl were added to each well and incubated for 1 hour at 37° C. The plates were washed with PBS/Tween and then incubated with Streptavidin-HRP for 10 mins at 37° C. After washing, the plates were developed with TMB substrate and analyzed by spectrophotometer at OD 450 nm.

Row | Binder | IC50
42 | B5 | 1.13 µg/mL
43 | B9 | 0.866 µg/mL
44 | B1 | 0.531 µg/mL

Molecular target: T1, human TIGIT expressed on cells
Experiment: flow cytometry (FACS) on human TIGIT overexpressing mammalian cells
Description: as §1

Row | Binder | EC50
45 | B1 | 0.0328 µg/mL
46 | B2 | 0.0368 µg/mL
